The values that follow come from paper PMC4867592, “Targeting multiple response regulators of Mycobacterium tuberculosis augments the host immune response to infection” (Scientific Reports, 2016).

What all share (assay): EMSA
On the technique in general: Mobility shift assays separate free from complexed probe on a gel.

In one series the target is T1, RegX3 K204A K204A (UniProt P9WGL9).
T1 sequence: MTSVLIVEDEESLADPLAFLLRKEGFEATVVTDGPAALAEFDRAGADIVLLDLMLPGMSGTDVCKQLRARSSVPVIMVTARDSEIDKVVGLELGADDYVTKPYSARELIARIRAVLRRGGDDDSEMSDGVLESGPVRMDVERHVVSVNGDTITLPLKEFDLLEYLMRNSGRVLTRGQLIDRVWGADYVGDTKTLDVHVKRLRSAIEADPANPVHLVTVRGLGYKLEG

Another series addresses T2, RegX3 L201A L201A (UniProt P9WGL9).
T2 sequence: T1 sequence with L201A, A204K

A further series deals with T3, RegX3 R202A R202A (UniProt P9WGL9).
T3 sequence: T1 sequence with R202A, A204K

Positions count from the first letter of the chain named.

As to “ACCGGCTTGGGACCGGCACCGCGGTACTGTGTGCGTTCGGCACCGCGCTGCACCCGCGGTTCGGGCCGGATTCGTCCGCGCGGCACCGCCGTTCGGGCGC (double strand) [ppK1 promoter fragment]”, the values for the binding entry in the series with RegX3 K204A K204A, with RegX3 L201A L201A and with RegX3 R202A R202A were “no binding”, “no binding” and “binds”, respectively.
